# Assay results taken from patent US7888090B2, “Mutants of O6-alkylguanine-DNA alkyltransferase” (Ecole Polytechnique Federale de Lausanne, priority 2004, dated 2011).
# B1: AGTM: AGT mutant Cys62Ala, Gln115Ser, Gln116His, Lys125Ala, Ala127Thr, Arg128Ala, Gly131Lys, Gly132Thr, Met134Leu, Arg135Ser, Cys150Asn, Ser151Ile, Ser152Asn, Asn157Gly, Ser159Glu, truncated after … (protein, UniProt P16455 1-207, looked up, variant C62A Q115S Q116H K125A A127T R128A G131K G132T M134L R135S C150N S151I S152N N157G S159E del183-207)
# Methylated-DNA--protein-cystei …: MDKDCEMKRTTLDSPLGKLELSGCEQGLHEIKLLGKGTSAADAVEVPAPAAVLGGPEPLMQATAWLNAYFHQPEAIEEFPVPALHHPVFQQESFTRQVLWKLLKVVKFGEVISYSHLAALAGNPAATAAVKTALSGNPVPILIPCHRVVNINGAVGGYEGGLAVKEWLLAHEGHRLGKPGLG
# modifications: His tag
# Experiments:
# [1] = tested on: oligonucleotide SEQ ID NO:2 (modified in position 14); assay: Reactivity against DNA-based substrates (BG-Cy3 assay with BG-modified oligonucleotide); format: biochemical
# Experimental: The ability of wild type AGT or mutant AGT to react with alkylated DNA substrates is measured as the reaction of its inactivation by a synthetic oligonucleotide containing O^6-benzylguanine (SEQ ID NO:2, modified in position 14). Subsequently, the reactions are quenched by incubation with biotinylated O^6-alkylguanine. Samples are subjected to Western blotting and detection with streptavidin derivates to obtain kinetic constants for these substrates. Alternatively, the ability of wild type or mutant AGT to react with alkylated DNA substrates is measured via its labeling efficiency in competition with a fluorescent substrate of AGT. The reaction kinetics of AGT with BG-Cy3 (O^6-benzylguanine coupled to Cy3) is followed by fluorescence intensity measurements at various concentrations of a competing synthetic oligonucleotide containing O^6-benzylguanine (SEQ ID NO:2, modified in position 14).
# (§1) Reactivity against DNA-based substrates measured with a BG-Cy3 assay: BG-Cy3 is prepared by reacting the previously described O^6-(4-aminomethyl-benzyl)guanine (Keppler et al., NatureBiotechnol. 21:86-89, 2003) with the commercially available N-hydroxysuccinimide ester of Cy3, (Cy3-NHS, Amersham). The coupling reaction is performed at ambient temperature in N,N-dimethylformamide in the presence of 1 eq. of triethylamine. The BG-Cy3 conjugate is purified by reversed-phase HPLC on a C18-column by using linear gradients from 0.1% trifluoroacetic acid to acetonitrile. After solvent evaporation BG-Cy3 is dissolved in dimethyl sulfoxide and stored at −20° C. For measuring the reactivity with DNA-based substrates, a reaction mixture containing different concentrations (0 to 5 µM) of oligonucleotide SEQ ID NO:2 (modified in position 14), GST-AGT fusion protein at 0.2 µM and BG-Cy3 at […] in reaction buffer (50 mM HEPES, pH 7.2, 1 mM DTT, 200 mg/ml BSA) is incubated in microtiterplates. Fluorescence of the Cy3 derivative (excitation 519 nm, emission at 572 nm) is measured on a Spectramax Gemini plate reader (Molecular Devices).
# [2] = BG-Cy3 activity assay (reaction rate of AGT mutants); format: biochemical; conditions: divided by value for wild type hAGT; purified GST fusion proteins (p.)
# Experimental: as §1
# The amplified products are cloned in fusion to the g3 gene of filamentous phage in the vector pAK100 via SfiI restriction sites. The resulting gene libraries are used for phage display as described under Example 4. The mutants of the libraries are selected with 5 to 50 nM of BG-Bt for 10 min. Selected mutants are subcloned into pGEX using the primers SEQ ID NO:3 and SEQ ID NO:13. The reaction rate of mutant AGTs is determined as described in Example 6, Reactivity against DNA-based substrates (BG-Cy3 assay).
# For the activity assay purified GST fusion proteins were used for mutants marked with “p.” (prepared as described under Example 1); periplasmic extracts were used for mutants marked with “x.” (prepared as described under Example 2).
molecule,measurement,setting,value
B1,reduced reactivity with DNA substrates (factor),[1],≥ 100
same,reaction with BG-Cy3 in presence of BG-modified oligonucleotide,[1]; up to 5 µM BG-modified oligonucleotide,no reduction
same,Relative reaction rate,[2],2.72
